The source of these data is publication PMC12088383.

The data set has as its target GST-OGG1F319A (Homo sapiens, UniProt O15527 1-345, F319A). In words: EMSA. (In general: Mobility shift assays separate free from complexed probe on a gel.)

Sequence of GST-OGG1F319A (O15527 whole entry F319A): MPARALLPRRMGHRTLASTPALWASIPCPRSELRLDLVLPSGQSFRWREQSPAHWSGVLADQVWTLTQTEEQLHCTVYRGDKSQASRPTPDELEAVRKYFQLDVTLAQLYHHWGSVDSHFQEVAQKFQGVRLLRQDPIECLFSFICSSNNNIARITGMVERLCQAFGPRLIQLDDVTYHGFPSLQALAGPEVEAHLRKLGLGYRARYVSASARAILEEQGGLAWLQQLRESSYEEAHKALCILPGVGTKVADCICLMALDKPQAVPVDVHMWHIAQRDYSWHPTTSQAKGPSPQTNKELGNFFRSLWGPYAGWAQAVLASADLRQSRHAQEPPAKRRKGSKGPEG

B1: 8-oxoGua duplex probe (Table S1) (dsDNA)
DNA 1: AGAGAAGAAGAAGAAGAAGAGATGGGTTATTCGAACTAGC
DNA 2: GCTAGTTCGAATAACCCATCTCTTCTTCTTCTTCTTCTCT
modifications: 8-oxoguanine at position 19 of strand 1 (printed X, written as G)
Take B1: the binding result is given as “no binding”.
